Assay results: patent US12629406B2, “Alterations in endothelin receptors following hemorrhage and resuscitation by centhaquin” (MIDWESTERN UNIVERSITY, priority 2018, dated 2026)
*1 amine or outer side, *2 acyl side, *3 side chain or, on linkers, in order; H or OH if unused. Where no end group is shown, it is not given here. Suc = O=C(CCC(=O)[*:2])[*:1]

How the values were obtained:
ETB receptors [1] = molecular target: T1, ETB receptors (Homo sapiens, UniProt P24530)
T1 sequence (P24530 27-442): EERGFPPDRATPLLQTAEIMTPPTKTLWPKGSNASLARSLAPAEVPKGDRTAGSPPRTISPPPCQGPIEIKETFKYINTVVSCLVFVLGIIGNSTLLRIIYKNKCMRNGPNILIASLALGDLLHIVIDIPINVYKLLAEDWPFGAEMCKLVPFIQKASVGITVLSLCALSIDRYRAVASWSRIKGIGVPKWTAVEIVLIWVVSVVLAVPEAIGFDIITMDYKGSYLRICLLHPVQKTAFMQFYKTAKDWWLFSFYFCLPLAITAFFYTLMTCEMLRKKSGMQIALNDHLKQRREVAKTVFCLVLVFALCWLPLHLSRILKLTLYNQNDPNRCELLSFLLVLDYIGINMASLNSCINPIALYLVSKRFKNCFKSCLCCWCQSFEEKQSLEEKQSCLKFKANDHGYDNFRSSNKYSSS

ETA receptors = molecular target: T2, ETA receptors (Homo sapiens, UniProt P25101); settings: cited from earlier work
T2 sequence (P25101 21-427): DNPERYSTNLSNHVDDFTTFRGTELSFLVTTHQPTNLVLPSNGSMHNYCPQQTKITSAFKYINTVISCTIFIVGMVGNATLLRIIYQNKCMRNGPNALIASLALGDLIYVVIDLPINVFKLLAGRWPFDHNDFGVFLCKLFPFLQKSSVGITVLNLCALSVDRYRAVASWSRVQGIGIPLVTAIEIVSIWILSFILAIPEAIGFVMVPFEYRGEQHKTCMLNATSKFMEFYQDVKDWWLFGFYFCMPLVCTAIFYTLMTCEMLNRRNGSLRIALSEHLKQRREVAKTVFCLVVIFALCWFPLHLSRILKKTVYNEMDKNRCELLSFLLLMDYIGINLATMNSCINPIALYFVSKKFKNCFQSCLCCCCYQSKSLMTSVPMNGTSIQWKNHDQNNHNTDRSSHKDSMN

ETB receptors [2] = molecular target: T1, ETB receptors; settings: cited from earlier work

For “analog of ET-1, Suc-Asp-Glu-Glu-Ala-Val-Tyr-Phe-Ala-His-Leu-Asp-Ile-Ile-Trp; potent and specific agonist for the ETB receptors (Suc-DEEAVYFAHLDIIW) [IRL-1620, N-Succinyl-[Glu^9, Ala^11,15] endothelin 1]”, the “selectivity for ETB over ETA receptors” value (ETB receptors [1]) is listed as “approximately 120,000 times”, the Ki (ETA receptors) is listed as 1900 nM and the Ki (ETB receptors [2]) is listed as 0.016 nM.
